Source: paper PMC3810134, “Substrate and Inhibitor Specificity of the Type II p21-Activated Kinase, PAK6” (PLoS ONE, 2013)

Test system: PACSIN1 phosphorylation (Ser343) in HEK293 cells
Assay: Cell-based assay: phospho-PACSIN1 on co-transfection with PAK6 constructs in HEK293 cells
Conditions: co-transfection with myc-PACSIN1, 24 h
Procedure: HEK293 cells were grown at 37°C with 5% CO2 in Dulbecco’s modified Eagle’s medium (DMEM) supplemented with 10% fetal bovine serum and penicillin/streptomycin. Cells were transfected with pCMV6-myc-PACSIN1 (kindly provided by J. Peterson) and pEGFP-C2, pEGFP-PAK6-WT, pEGFP-PAK6-P52L, pEGFP-PAK6-N (N-terminus, residues 1–382) or pEGFP-PAK6-CAT (catalytic domain, residues 383–674) using polyethylenimine (PEI, Polysciences Inc.). Twenty four hours later, cells were trypsinized, quenched with complete medium, washed with PBS and lysed in buffer containing 20 mM Tris (pH 8.0), 200 mM NaCl, 1 mM EDTA, 1% Triton X-100, Complete Protease Inhibitor Cocktail (Roche), and phosphatase inhibitors (1 mM Na3VO4, 10 mM NaF, 10 mM β-glycerol phosphate) for 10 minutes at 4°C. Samples were resolved by SDS-PAGE and were assessed by immunoblotting using the following antibodies: goat anti-GFP (1∶1000; Rockland), mouse anti-myc (9E10, 1∶1000; Santa Cruz Biotechnology), rabbit anti-phospho-PACSIN1 (1∶2000; gift of J. Peterson), mouse anti-vinculin (1∶10,000; Sigma), anti-goat or anti-rabbit IgG AlexaFluor680 (1∶5000, Invitrogen), anti-mouse IgG IRDye800 (1∶5000, Li-Cor). Bands visualized using a Li-Cor Oddysey imager and were quantified using ImageJ. A ratio of phospho-PACSIN1 to total PACSIN1 was calculated by dividing the total phospho-PACSIN1 signal by the myc signal.

Row | Molecule | phosphorylation of PACSIN1 at Ser343 compared to GFP alone or GFP-PAK6 N-terminus (phospho-PACSIN1 immunoblot) | phosphorylation of PACSIN1 compared to wild-type PAK6 (phospho-PACSIN1/total PACSIN1 (myc), n = 4, Student's t-test)
1 | full-length WT GFP-PAK6: full-length wild-type PAK6 fused to GFP, transfected in HEK293 cells (protein, UniProt Q9NQU5 1-681, looked up, full-length GFP fusion, full-length wild-type PAK6 fused to GFP, transfected in HEK293 cells) MFRKKKKKRPEISAPQNFQHRVHTSFDPKEGKFVGLPPQWQNILDTLRRPKPVVDPSRITRVQLQPMKTVVRGSAMPVDGYISGLLNDIQKLSVISSNTLRGRSPTSRRRAQSLGLLGDEHWATDPDMYLQSPQSERTDPHGLYLSCNGGTPAGHKQMPWPEPQSPRVLPNGLAAKAQSLGPAEFQGASQRCLQLGACLQSSPPGASPPTGTNRHGMKAAKHGSEEARPQSCLVGSATGRPGGEGSPSPKTRESSLKRRLFRSMFLSTAATAPPSSSKPGPPPQSKPNSSFRPPQKDNPPSLVAKAQSLPSDQPVGTFSPLTTSDTSSPQKSLRTAPATGQLPGRSSPAGSPRTWHAQISTSNLYLPQDPTVAKGALAGEDTGVVTHEQFKAALRMVVDQGDPRLLLDSYVKIGEGSTGIVCLAREKHSGRQVAVKMMDLRKQQRRELLFNEVVIMRDYQHFNVVEMYKSYLVGEELWVLMEFLQGGALTDIVSQVRLNEEQIATVCEAVLQALAYLHAQGVIHRDIKSDSILLTLDGRVKLSDFGFCAQISKDVPKRKSLVGTPYWMAPEVISRSLYATEVDIWSLGIMVIEMVDGEPPYFSDSPVQAMKRLRDSPPPKLKNSHKVSPVLRDFLERMLVRDPQERATAQELLDHPFLLQTGLPECLVPLIQLYRKQTSTC | increased phosphorylation of PACSIN1 at Ser343 | 
2 | P52L mutant: full-length GFP-PAK6 with melanoma-associated P52L mutation, transfected in HEK293 cells (protein, UniProt Q9NQU5 1-681, looked up, variant P52L, full-length GFP fusion, full-length GFP-PAK6 with melanoma-associated P52L mutation, transfected in HEK293 cells) MFRKKKKKRPEISAPQNFQHRVHTSFDPKEGKFVGLPPQWQNILDTLRRPKLVVDPSRITRVQLQPMKTVVRGSAMPVDGYISGLLNDIQKLSVISSNTLRGRSPTSRRRAQSLGLLGDEHWATDPDMYLQSPQSERTDPHGLYLSCNGGTPAGHKQMPWPEPQSPRVLPNGLAAKAQSLGPAEFQGASQRCLQLGACLQSSPPGASPPTGTNRHGMKAAKHGSEEARPQSCLVGSATGRPGGEGSPSPKTRESSLKRRLFRSMFLSTAATAPPSSSKPGPPPQSKPNSSFRPPQKDNPPSLVAKAQSLPSDQPVGTFSPLTTSDTSSPQKSLRTAPATGQLPGRSSPAGSPRTWHAQISTSNLYLPQDPTVAKGALAGEDTGVVTHEQFKAALRMVVDQGDPRLLLDSYVKIGEGSTGIVCLAREKHSGRQVAVKMMDLRKQQRRELLFNEVVIMRDYQHFNVVEMYKSYLVGEELWVLMEFLQGGALTDIVSQVRLNEEQIATVCEAVLQALAYLHAQGVIHRDIKSDSILLTLDGRVKLSDFGFCAQISKDVPKRKSLVGTPYWMAPEVISRSLYATEVDIWSLGIMVIEMVDGEPPYFSDSPVQAMKRLRDSPPPKLKNSHKVSPVLRDFLERMLVRDPQERATAQELLDHPFLLQTGLPECLVPLIQLYRKQTSTC |  | significantly increased phosphorylation
